Data reported in PMC8850660 (2022).

Experiments:
[1] = target: T1, unphosphorylated beta subunit of the insulin receptor (IRβ), recombinant (UniProt P06213 763-1382); experiment: SPR; in the presence of C646 (0-100 nM)
[2] = target: T1, unphosphorylated beta subunit of the …; experiment: SPR; in the presence of C646 (0-100 nM); remark: listed apart in the source

T1 sequence (P06213 763-1382): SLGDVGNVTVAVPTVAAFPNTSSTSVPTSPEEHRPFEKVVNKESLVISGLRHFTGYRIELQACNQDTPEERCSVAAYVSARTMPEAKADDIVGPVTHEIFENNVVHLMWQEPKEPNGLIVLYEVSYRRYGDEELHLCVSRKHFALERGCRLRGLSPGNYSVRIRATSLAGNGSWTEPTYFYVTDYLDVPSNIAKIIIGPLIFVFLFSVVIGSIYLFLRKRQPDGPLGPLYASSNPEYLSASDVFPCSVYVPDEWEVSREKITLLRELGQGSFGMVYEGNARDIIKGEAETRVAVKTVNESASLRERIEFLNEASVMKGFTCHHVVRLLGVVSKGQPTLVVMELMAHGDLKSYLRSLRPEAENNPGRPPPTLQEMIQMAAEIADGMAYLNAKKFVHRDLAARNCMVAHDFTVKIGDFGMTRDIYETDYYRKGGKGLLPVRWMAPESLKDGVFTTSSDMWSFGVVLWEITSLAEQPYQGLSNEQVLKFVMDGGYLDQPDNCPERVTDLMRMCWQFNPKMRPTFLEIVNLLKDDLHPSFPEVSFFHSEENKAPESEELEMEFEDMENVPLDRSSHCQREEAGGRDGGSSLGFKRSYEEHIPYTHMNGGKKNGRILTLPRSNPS

Binder	koff [1] [s⁻¹]	Kd [2] [pM]
purified IRS2 protein (insulin receptor substrate 2) (natural protein) MASAPLPGPPASAGGDGPNLNNNNNNNNHSVRKCGYLRKQKHGHKRFFVLRGPGTGGDEASAAGGSPPQPPRLEYYESEKKWRSKAGAPKRVIALDCCLNINKRADAKHKYLIALYTKDEYFAVAAENEQEQEGWYRALTDLVSEGRSGEGGSGTTGGSCSASLPGVLGGSAGAAGCDDNYGLVTPATAVYREVWQVNLKPKGLGQSKNLTGVYRLCLSARTIGFVKLNCEQPSVTLQLMNIRRCGHSDSFFFIEVGRSAVTGPGELWMQADDSVVAQNIHETILEAMKALKELFEFRPRSKSQSSGSSATHPISVPGARRHHHLVNLPPSQTGLVRRSRTDSLAATPPAAKCTSCRVRTASEGDGGAAGGAGTAGGRPMSVAGSPLSPGPVRAPLSRSHTLSAGCGGRPSKVTLAPAGGALQHSRSMSMPVAHSPPAATSPGSLSSSSGHGSGSYPLPPGSHPHLPHPLHHPQGQRPSSGSASASGSPSDPGFMSLDEYGSSPGDLRAFSSHRSNTPESIAETPPARDGSGGELYGYMSMDRPLSHCGRPYRRVSGDGAQDLDRGLRKRTYSLTTPARQRQVPQPSSASLDEYTLMRATFSGSSGRLCPSFPASSPKVAYNPYPEDYGDIEIGSHKSSSSNLGADDGYMPMTPGAALRSGGPNSCKSDDYMPMSPTSVSAPKQILQPRLAAALPPSGAAVPAPPSGVGRTFPVNGGGYKASSPAESSPEDSGYMRMWCGSKLSMENPDPKLLPNGDYLNMSPSEAGTAGTPPDFSAALRGGSEGLKGIPGHCYSSLPRSYKAPCSCSGDNDQYVLMSSPVGRILEEERLEPQATPGAGTFGAAGGSHTQPHHSAVPSSMRPSAIGGRPEGFLGQRCRAVRPTRLSLEGLQTLPSMQEYPLPTEPKSPGEYINIDFGEAGTRLSPPAPPLLASAASSSSLLSASSPASSLGSGTPGTSSDSRQRSPLSDYMNLDFSSPKSPKPSTRSGDTVGSMDGLLSPEASSPYPPLPPRPSTSPSSLQQPLPPAPGDLYRLPPASAATSQGPTAGSSMSSEPGDNGDYTEMAFGVAATPPQPIVAPPKPEGARVASPTSGLKRLSLMDQVSGVEAFLQVSQPPDPHRGAKVIRADPQGGRRRHSSETFSSTTTVTPVSPSFAHNSKRHNSASVENVSLRKSSEGSSTLGGGDEPPTSPGQAQPLVAVPPVPQARPWNPGQPGALIGCPGGSSSPMRRETSVGFQNGLNYIAIDVRGEQGSLAQSQPQPGDKNSWSRTRSLGGLLGTVGGSGASGVCGGPGTGALPSASTYASIDFLSHHLKEATVVKE	1.5e-06	7.6
purified IRS1 protein (insulin receptor substrate 1) (natural protein) MASPPDTDGFSDVRKVGYLRKPKSMHKRFFVLRAASEAGGPARLEYYENEKKWRHKSSAPKRSIPLESCFNINKRADSKNKHLVALYTRDEHFAIAADSEAEQDSWYQALLQLHNRAKAHHDGAGGGCGGSCSGSSGVGEAGEDLSYDTGPGPAFKEVWQVILKPKGLGQTKNLIGIYRLCLTSKTISFVKLNSEAAAVVLQLMNIRRCGHSENFFFIEVGRSAVTGPGEFWMQVDDSVVAQNMHETILEAMRAMSDEFRPRSKSQSSSSCSNPISVPLRRHHLNNPPPSQVGLTRRSRTESITATSPASMVGGKPGSFRVRASSDGEGTMSRPASVDGSPVSPSTNRTHAHRHRGSSRLHPPLNHSRSIPMPSSRCSPSATSPVSLSSSSTSGHGSTSDCLFPRRSSASVSGSPSDGGFISSDEYGSSPCDFRSSFRSVTPDSLGHTPPARGEEELSNYICMGGKGASTLAAPNGHYILSRGGNGHRYIPGANLGTSPALPGDEAAGAADLDNRFRKRTHSAGTSPTISHQKTPSQSSVASIEEYTEMMPAAYPPGGGSGGRLPGYRHSAFVPTHSYPEEGLEMHHLERRGGHHRPDTSNLHTDDGYMPMSPGVAPVPSNRKGNGDYMPMSPKSVSAPQQIINPIRRHPQRVDPNGYMMMSPSGSCSPDIGGGSSSSSSISAAPSGSSYGKPWTNGVGGHHTHALPHAKPPVESGGGKLLPCTGDYMNMSPVGDSNTSSPSECYYGPEDPQHKPVLSYYSLPRSFKHTQRPGEPEEGARHQHLRLSSSSGRLRYTATAEDSSSSTSSDSLGGGYCGARPESSLTHPHHHVLQPHLPRKVDTAAQTNSRLARPTRLSLGDPKASTLPRVREQQQQQQSSLHPPEPKSPGEYVNIEFGSGQPGYLAGPATSRSSPSVRCPPQLHPAPREETGSEEYMNMDLGPGRRATWQESGGVELGRIGPAPPGSATVCRPTRSVPNSRGDYMTMQIGCPRQSYVDTSPVAPVSYADMRTGIAAEKASLPRPTGAAPPPSSTASSSASVTPQGATAEQATHSSLLGGPQGPGGMSAFTRVNLSPNHNQSAKVIRADTQGCRRRHSSETFSAPTRAGNTVPFGAGAAVGGSGGGGGGGSEDVKRHSSASFENVWLRPGDLGGVSKESAPVCGAAGGLEKSLNYIDLDLAKEHSQDCPSQQQSLPPPPPHQPLGSNEGNSPRRSSEDLSNYASISFQKQPEDRQ	3.92e-08	0.286
